The source of these data is article PMC5548745, “Agonist-induced dimer dissociation as a macromolecular step in G protein-coupled receptor signaling” (Nature Communications, 2017).

The labels stand for the following.
B1: Frizzled 6 (FZD6), wild type, expressed as V5-FZD6-mCherry and as FZD6-GFP (receptor, human, UniProt O60353 19-706, looked up)
chain: HSLFTCEPITVPRCMKMAYNMTFFPNLMGHYDQSIAAVEMEHFLPLANLECSPNIETFLCKAFVPTCIEQIHVVPPCRKLCEKVYSDCKKLIDTFGIRWPEELECDRLQYCDETVPVTFDPHTEFLGPQKKTEQVQRDIGFWCPRHLKTSGGQGYKFLGIDQCAPPCPNMYFKSDELEFAKSFIGTVSIFCLCATLFTFLTFLIDVRRFRYPERPIIYYSVCYSIVSLMYFIGFLLGDSTACNKADEKLELGDTVVLGSQNKACTVLFMLLYFFTMAGTVWWVILTITWFLAAGRKWSCEAIEQKAVWFHAVAWGTPGFLTVMLLAMNKVEGDNISGVCFVGLYDLDASRYFVLLPLCLCVFVGLSLLLAGIISLNHVRQVIQHDGRNQEKLKKFMIRIGVFSGLYLVPLVTLLGCYVYEQVNRITWEITWVSDHCRQYHIPCPYQAKAKARPELALFMIKYLMTLIVGISAVFWVGSKKTCTEWAGFFKRNRKRDPISESRRVLQESCEFFLKHNSKVKHKKKHYKPSSHKLKVISKSMGTSTGATANHGTSAVAITSHDYLGQETLTEIQTSPETSMREVKADGASTPRLREQDCGEPASPAASISRLSGEQVDGKGQAGSVSESARSEGRISPKSDITDTGLAQSNNLQVPSSSEPSSLKGSTSLLVHPVSGVRKEQGGGCHSDT
notes: Frizzled 6 (FZD6), human, Uniprot ID O60353; Two differently tagged copies of the same receptor are tested against each other, so they are written as one molecule; The FCS experiment used FZD6-GFP alone; also called FZD6 wt; source: HEK293, transiently transfected (Lipofectamine 2000), in living cells; not shown: V5 (on the crosslinked copy), N-terminal, kept; mCherry (on the crosslinked copy), …

Data set [1] concerns the molecule itself. The data set is described as follows: fluorescence cross-correlation spectroscopy (FCCS); living HEK293 cells co-expressing FZD6-GFP and V5-FZD6-mCherry at low levels (10-1000 receptors per µm^2), no crosslinking; dynamic measurements before and after WNT-5A (300 ng ml^-1).
For data set [2], the system named is FZD6–FZD6 dimer. The data set is described as follows: dcFRAP of V5-FZD6-mCherry/FZD6-GFP (FZD6 dimerization). The class given is cell-based, human. Summed up: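 Live cells co-expressing V5-FZD6-mCherry and FZD6-GFP, surface V5 tag crosslinked with biotin-anti-V5 plus avidin in BE buffer at RT. Membrane areas photobleached, recovery imaged (488/561 nm) over 100 s; mobile fraction from background/bleach-corrected, pre-bleach-normalized intensity at 85-101 s. Cells with <40% crosslink-induced mobility reduction excluded.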

Data set [3] has as its system FZD6–FZD6 dimer. Nature of the data set: dynamic FCCS of V5-FZD6-mCherry/FZD6-GFP. In kind it is cell-based, human. As to conditions: HEK293; representative cell; G cc normalized to green auto-correlation amplitude; prior to stimulation. As to the method: HEK293 cells were grown over-night in Lab-Tek eight-well chamber-glass bottom slides (Nunc, Thermo Scientific, Langensbold, Germany) coated with matrigel. Data were acquired in 10 s intervals. Collection intervals containing abnormal fluorescence peaks (presumably resulting from aggregates or ROIs where the overall fluorescence was decaying, putatively due to membrane movements) were discarded from the overall analysis. The total included measurements time ranged from 20 to 80 s per cell. Measurements were only undertaken on cells where the fluorescence was well localized to the cell surface membrane, as judged by visual inspection in the wide-field and confocal mode. Autofluorescence, as well as fluorescence from both GFP and mCherry in the intracellular region was negligible. The number of fluorescent receptors assessed in each experiment varied from 10–1000 receptors per µm^2 in each HEK293 cell.
Dynamic FCCS measurements of WNT-dependent dissociation and re-association of FZD (Fig. 5c–e) were performed on an FCS/FCCS-equipped Zeiss 780 confocal microscope (Zeiss, Jena, Germany). The instrument details were the same as those of the Confocor 3 described above, with the exception that 561 nm excitation was used for excitation of mCherry, that GFP emission was detected from 500 to 550 nm, and that mCherry emission was detected from 600 to 690 nm. Experiments on cells were performed as described above, with each measurement point consisting of 3–6 measurements of 10 s each. […]
Assuming that M is FZD6-GFP (green) and N is FZD6-mCherry (red) and that all FZD6 form dimers, then the probability of finding a green–red FZD6 dimer is pgr=2×M×N/(M+N)(M+N-1)≈2×M×N/M+N^2=(2cgg+cgr)(2crr+cgr)/2cgg+cgr+crr^2 , where c gg, c gr, and c rr are the corresponding concentrations of the only green FZD6 dimers, the red and green FZD6 dimers and the only red FZD6 dimers. […] From the experiments, we determine the concentrations for c gg, c gr and c rr and compare the concentrations c gr with the c′gr for each cell to get an estimation of how close the model is to experimental data: cgr/c′gr=2cgr×(cgg+cgr+crr)/((2cgg+cgr)(2crr+cgr)) Analysis of the dynamic FCCS measurements of WNT-dependent dissociation and re-association of FZD6: Auto-correlation and cross-correlation curves were analyzed as described above and the amplitudes G g(0)−1, G r(0)−1, and G cc(0)−1 from each of the more than 300 measurements of 10 s duration were estimated by fitting to theoretical models. […]
With the settings described above for detection of emission, the crosstalk from the GFP channel to the mCherry channel, defined as the intensity detected in the mCherry channel divided by the intensity detected in the GFP channel, I r/I g, for a cell expressing only FZD-GFP, was 0.051 or 5.1 %. […]

In data set [4] the test system is FZD6–FZD6 dimer. The data set is described as follows: ratiometric FRET of C-terminally tagged FZD6 constructs. In kind it is cell-based, human.
In data set [5] the target is B1. Nature of the data set: cell-based or functional assay.
Data set [6] concerns the target T1, FZD6 TM4 synthetic peptide (human).
T1 construct: flanking lysines added to the transmembrane stretch; transmembrane helix 4 of human FZD6, Uniprot ID O60353; Whole peptide as printed: [residues removed]; source: synthetic peptide (Pepscan Therapeutics or Fmoc synthesis, HPLC purified)
T1 peptide: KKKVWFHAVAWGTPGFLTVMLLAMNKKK
Nature of the data set: SEC; Superdex 30 analytical column, triple distilled water + 0.01% DDM, room temperature; 500 µM of each peptide, incubated together for 2 h. As to conditions: both partners purified.

For the molecule B1, in data set [1], the “stoichiometry N” value worked out at 2.

B2: FZD6-GFP: GFP-tagged human FZD6 receptor construct (protein)
chain: HSLFTCEPITVPRCMKMAYNMTFFPNLMGHYDQSIAAVEMEHFLPLANLECSPNIETFLCKAFVPTCIEQIHVVPPCRKLCEKVYSDCKKLIDTFGIRWPEELECDRLQYCDETVPVTFDPHTEFLGPQKKTEQVQRDIGFWCPRHLKTSGGQGYKFLGIDQCAPPCPNMYFKSDELEFAKSFIGTVSIFCLCATLFTFLTFLIDVRRFRYPERPIIYYSVCYSIVSLMYFIGFLLGDSTACNKADEKLELGDTVVLGSQNKACTVLFMLLYFFTMAGTVWWVILTITWFLAAGRKWSCEAIEQKAVWFHAVAWGTPGFLTVMLLAMNKVEGDNISGVCFVGLYDLDASRYFVLLPLCLCVFVGLSLLLAGIISLNHVRQVIQHDGRNQEKLKKFMIRIGVFSGLYLVPLVTLLGCYVYEQVNRITWEITWVSDHCRQYHIPCPYQAKAKARPELALFMIKYLMTLIVGISAVFWVGSKKTCTEWAGFFKRNRKRDPISESRRVLQESCEFFLKHNSKVKHKKKHYKPSSHKLKVISKSMGTSTGATANHGTSAVAITSHDYLGQETLTEIQTSPETSMREVKADGASTPRLREQDCGEPASPAASISRLSGEQVDGKGQAGSVSESARSEGRISPKSDITDTGLAQSNNLQVPSSSEPSSLKGSTSLLVHPVSGVRKEQGGGCHSDT
modifications: left off: V5 (on the crosslinked copy), N-terminal, kept | mCherry (on the crosslinked copy), C-terminal, kept | GFP (on the other, mobile copy), C-terminal, kept
notes: GFP-tagged human FZD6 receptor construct
Consider B2, for which, in data set [2] (HEK293, basal, without biotinylated anti-V5/avidin crosslinking, 85–101 s, mean ± s.e.m., N = 21 ROIs), the “mobile fraction of FZD6-GFP before CL” value is reported as 80.8 ± 2.0%. Moreover, the “mobile fraction of FZD6-GFP after CL” value in data set [2] (HEK293, with biotinylated anti-V5/avidin crosslinking, 85–101 s, mean ± s.e.m., N = 31 ROIs) is reported as 70.7 ± 2.4%. For the same molecule, in data set [2] (extrapolated from varying expression ratios, mCherry to GFP 1:1), the dimeric fraction result is reported as “around 25%”. Moreover, the “red molecules also green prior to WNT-5A” value in data set [3] turned out to be 11%. The “energy transfer between fluorophores (FRET)” value in data set [4] is listed as “not able to detect energy transfer”.

On to KKLDASRYFVLLPLCLCVFVGLSLLLAGIISKKK [HA-tagged TM5 minigene of FZD6], for which the “basal P-ERK1/2 level (immunoblot) in MLE-12 cells expressing the TM5 minigene, which interferes with the FZD6-FZD6 dimer; the TM1 minigene had no effect” value in data set [5] worked out at 56.7%.

B3: FZD6 TM5 synthetic peptide (peptide)
peptide: KKLDASRYFVLLPLCLCVFVGLSLLLAGIISKKK
notes: flanking lysines added to the transmembrane stretch; transmembrane helix 5 of human FZD6, Uniprot ID O60353; source: synthetic peptide (Pepscan Therapeutics or Fmoc synthesis, HPLC purified)
For the molecule B3, in data set [6], the binding result is “binds”.
